Assay results taken from patent US6303749A, “Agouti and agouti-related peptide analogs” (Amgen Inc., priority 1999, dated 2001).
Values joined by “and” are separate entries in the source; they are usually repeats but may differ in a detail not shown here. Identical values can stand only once. Bridge positions count the residues as written; N and C are the ends. Square brackets hold non-standard residues; d marks the D form. Ends that are not written are not given here. Nle = CCCC[C@H](N)C(=O)O; Abu = CC[C@H](N)C(=O)O

B1: peptide of SEQ ID NO:17 (peptide)
peptide: [Abu][Abu]DPCAS[Abu]QCRFFRSACS[Abu]RVLSLNC
modifications: disulfide (positions not given here); also: oxidised to disulfides, pairs not given here
B2: peptide of SEQ ID NO:13 (peptide)
peptide: RNSCKPPAPAC[Abu]DP[Abu]ASCQCRFFRSACSCRVL
modifications: disulfide (positions not given here); not fully specified (bridges); printed as Arg-Asn-Ser-Cys-Lys-Pro-Pro-Ala-Pro-Ala-Cys-Abu-Asp-Pro-Abu-Ala-Ser-Cys-Gln-Cys-Arg-Phe-Phe-Arg-Ser-Ala-Cys-Ser-Cys-Arg-Val-Leu; also: three disulfides, pairing not given here
B3: peptide of SEQ ID NO:11 (peptide)
peptide: C[Abu]DPCAT[Abu]Y[Abu]RFFNAF[Abu]YCRKLGTAMNPCSRT
modifications: disulfide (positions not given here); also: oxidised to disulfides, pairs not given here
B4: peptide of SEQ ID NO:18 (peptide)
peptide: C[Abu]DPCAS[Abu]Q[Abu]RFFRSA[Abu]SCRVLSLNC
modifications: disulfide (positions not given here); also: oxidised to disulfides, pairs not given here
B5: peptide of SEQ ID NO:9 (peptide)
peptide: [Abu][Abu]DPCAT[Abu]YCRFFNAFCY[Abu]RKLGTAMNPCSRT
modifications: disulfide (positions not given here); not fully specified (bridges); also: disulfide pairing not given here
B6: peptide of SEQ ID NO:14 (peptide)
peptide: RNSCKPPAPA[Abu][Abu]DP[Abu]ASCQCRFFRSACS[Abu]RVL
modifications: disulfide (positions not given here); also: oxidised to disulfides, pairs not given here
B7: Mkd5-AGRP (ligand)
chain: APMEGIRRPDQALLPELPGLGLRAPLKKTTAEQAEEDLLQEAQALAEVLDLQDREPRSSRRCVRLHESCLGQQVPCCDPCATCYCRFFNAFCYCRKLGTAMNPCSRT

Assays:
[1] = format: binding, human; conditions: Table II; HEK 293 cell membranes; 125I-AGRP 1.10 nM; read-out: hMC3 IC50 (nM) 125I-AGRP
[2] = target: T1, human melanocortin-3 (MC-3) receptors (Homo sapiens, UniProt P41968); experiment: Melanocortin receptor binding assay, 125I-AGRP competition, MC-3; conditions: Table II; HEK 293 cell membranes; 125I-AGRP 1.10 nM; read-out: hMC3 IC50 (nM) 125I-AGRP
T1 construct: expressed in transfected cells; membrane fraction used
T1 sequence (P41968 whole entry): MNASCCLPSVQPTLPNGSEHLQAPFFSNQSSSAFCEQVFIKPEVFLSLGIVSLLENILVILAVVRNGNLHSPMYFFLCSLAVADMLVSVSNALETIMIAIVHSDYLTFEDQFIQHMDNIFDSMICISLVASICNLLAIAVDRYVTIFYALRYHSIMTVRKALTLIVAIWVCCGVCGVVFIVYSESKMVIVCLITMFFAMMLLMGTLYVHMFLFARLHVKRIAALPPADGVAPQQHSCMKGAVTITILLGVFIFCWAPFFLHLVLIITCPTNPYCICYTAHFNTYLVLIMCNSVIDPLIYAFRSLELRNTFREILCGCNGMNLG

[3] = target: T2, human melanocortin-4 (MC-4) receptors (Homo sapiens, UniProt P32245); format: binding; conditions: HEK 293 cell membranes; about […] 125I-NDP-α-MSH; 180 minutes at 25 C; read-out: hMC4 IC50 (nM) 125I NDP-MSH
T2 construct: expressed in transfected cells; membrane fraction used
T2 sequence (P32245 whole entry): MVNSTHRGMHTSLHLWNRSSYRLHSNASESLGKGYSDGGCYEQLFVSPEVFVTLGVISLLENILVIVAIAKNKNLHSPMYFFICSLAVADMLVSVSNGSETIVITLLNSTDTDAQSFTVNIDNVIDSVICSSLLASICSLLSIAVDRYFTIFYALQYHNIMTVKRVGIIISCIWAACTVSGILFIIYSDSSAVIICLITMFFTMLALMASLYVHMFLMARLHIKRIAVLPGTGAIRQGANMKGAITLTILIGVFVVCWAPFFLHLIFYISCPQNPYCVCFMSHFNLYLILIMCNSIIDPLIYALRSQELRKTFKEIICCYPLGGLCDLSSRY

[4] = target: T1, human melanocortin-3 (MC-3) receptors; experiment: Melanocortin receptor binding assay, 125I-NDP-alpha-MSH competition, MC-3; conditions: HEK 293 cell membranes; about […] 125I-NDP-α-MSH; 180 minutes at 25 C; read-out: hMC3 IC50 (nM) 125I NDP-MSH
[5] = target: T3, human melanocortin-3 (MC-3) receptor (human, UniProt P41968); experiment: displacement of 125I-NDP-alpha-MSH, membranes of HEK 293 cells with hMC3 (value column 3)
[6] = target: T4, human melanocortin-4 (MC-4) receptor (human, UniProt P32245); experiment: displacement of 125I-AGRP, membranes of HEK 293 cells with hMC4 (value column 2; its head prints hMC3)
T4 sequence (P32245 whole entry): as above

[7] = target: T4, human melanocortin-4 (MC-4) receptor; experiment: displacement of 125I-NDP-alpha-MSH, membranes of HEK 293 cells with hMC4 (value column 1)
[8] = target: T3, human melanocortin-3 (MC-3) receptor; experiment: displacement of 125I-AGRP, membranes of HEK 293 cells with hMC3 (value column 4)

| Molecule | IC50 [1] | IC50 [2] | IC50 [3] | IC50 [4] | IC50 [5] | IC50 [6] | IC50 [7] | IC50 [8] |
| --- | --- | --- | --- | --- | --- | --- | --- | --- |
| HESCLGQQVP[Abu][Abu]DP[Abu]ATCYCRFFNAFCY[Abu]RKL (cysteine pairing not given here) [SEQ ID NO:3] | 160 nM | > 1000 nM | 900 nM | > 1000 nM | – | – | – | – |
| AC[Abu]DP[Abu]AS[Abu]QCRFFRSACSCRVL (cysteine pairing not given here) [SEQ ID NO:16] | 280 nM | > 1000 nM | > 1000 nM | > 1000 nM | – | – | – | – |
| Cys-Abu-Asp-Pro-Abu-Ala-Thr-Abu-Tyr-Cys-Arg-Phe-Phe-Asn-Ala-Phe-Cys-Tyr-Cys-Arg-Lys-Leu-Gly-Thr-Ala-Met-Asn-Pro-Abu-Ser-Arg-Thr [SEQ ID NO:10] | 15 nM | 147 nM | 102 nM | 500 nM | – | – | – | – |
| RNS[Abu]KPPAPAC[Abu]DP[Abu]AS[Abu]QCRFFRSACSCRVL (cysteine pairing not given here) [SEQ ID NO:15] | 45 nM | > 1000 nM | 800 nM | > 1000 nM | – | – | – | – |
| HESCLGQQVPC[Abu]DP[Abu]ATCY[Abu]RFFNAF[Abu]YCRKL (cysteine pairing not given here) [SEQ ID NO:5] | 377 nM | > 1000 nM | > 1000 nM | > 1000 nM | – | – | – | – |
| His-Glu-Ser-Abu-Leu-Gly-Gln-Gln-Val-Pro-Cys-Abu-Asp-Pro-Abu-Ala-Thr-Abu-Tyr-Cys-Arg-Phe-Phe-Asn-Ala-Phe-Cys-Tyr-Cys-Arg-Lys-Leu [SEQ ID NO:4] | – | 90 nM | 100 nM | 850 nM | – | – | – | – |
| RNSCKPPAPAC[Abu]DP[Abu]ASCQCRFFRSACSCRVL (cysteine pairing not given here) [SEQ ID NO:13] | 60 nM | > 1000 nM | 1000 nM | > 1000 nM | – | – | – | – |
| [Abu][Abu]DPCAT[Abu]YCRFFNAFCY[Abu]RKLGTAMNPCSRT (cysteine pairing not given here) [SEQ ID NO:9] | 73 nM | 700 nM | 600 nM | > 1000 nM | – | – | – | – |
| C[Abu]DPCAT[Abu]Y[Abu]RFFNAF[Abu]YCRKLGTAMNPCSRT (cysteine pairing not given here) [SEQ ID NO:11] | 800 nM | > 1000 nM | > 1000 nM | > 1000 nM | – | – | – | – |
| HESCLGQQVPC[Abu]DP[Abu]ATCYCRFFNAFCYCRKL (cysteine pairing not given here) [SEQ ID NO:2] | – | 850 nM | 200 nM | > 1000 nM | – | – | – | – |
| [Abu][Abu]DPCAS[Abu]QCRFFRSACS[Abu]RVLSLNC (cysteine pairing not given here) [SEQ ID NO:17] | > 1000 nM | > 1000 nM | > 1000 nM | > 1000 nM | – | – | – | – |
| RNSCKPPAPA[Abu][Abu]DP[Abu]ASCQCRFFRSACS[Abu]RVL (cysteine pairing not given here) [SEQ ID NO:14] | 900 nM | > 1000 nM | > 1000 nM | > 1000 nM | – | – | – | – |
| C[Abu]DPCAS[Abu]Q[Abu]RFFRSA[Abu]SCRVLSLNC (cysteine pairing not given here) [SEQ ID NO:18] | > 1000 nM | > 1000 nM | > 1000 nM | > 1000 nM | – | – | – | – |
| C[Abu]DPCAT[Abu]YCRFFNAFCYCRKLGTAMNPCSRT (cysteine pairing not given here) [SEQ ID NO:8] | – | 400 nM | – | – | – | – | – | – |
| B1 | – | – | – | – | > 1000 nM | > 1000 nM | > 1000 nM | > 1000 nM |
| B2 | – | – | – | – | > 1000 nM | 60 nM | 1000 nM | > 1000 nM |

| Molecule | IC50 [1] | IC50 [2] | IC50 [3] | IC50 [4] | IC50 [5] | IC50 [6] | IC50 [7] | IC50 [8] |
| --- | --- | --- | --- | --- | --- | --- | --- | --- |
| B3 | – | – | – | – | > 1000 nM | 800 nM | > 1000 nM | > 1000 nM |
| HESCLGQQVP[Abu][Abu]DP[Abu]ATCYCRFFNAFCY[Abu]RKL (disulfide (positions not given here)) [peptide of SEQ ID NO:3] | – | – | – | – | > 1000 nM | 160 nM | 900 nM | > 1000 nM |
| B4 | – | – | – | – | > 1000 nM | > 1000 nM | > 1000 nM | > 1000 nM |
| B5 | – | – | – | – | > 1000 nM | 73 nM | 600 nM | 700 nM |
| AC[Abu]DP[Abu]AS[Abu]QCRFFRSACSCRVL (disulfide (positions not given here)) [peptide of SEQ ID NO:16] | – | – | – | – | > 1000 nM | 280 nM | > 1000 nM | > 1000 nM |
| HES[Abu]LGQQVPC[Abu]DP[Abu]AT[Abu]YCRFFNAFCYCRKL (disulfide (positions not given here)) [peptide of SEQ ID NO:4] | – | – | – | – | 850 nM | – | 100 nM | 90 nM |
| CRFFNAFC (disulfide 1-8 (inferred)) [peptide of SEQ ID NO:6] | – | – | – | – | > 1000 nM | – | > 1000 nM | > 1000 nM |
| B6 | – | – | – | – | > 1000 nM | 900 nM | > 1000 nM | > 1000 nM |
| HESCLGQQVPC[Abu]DP[Abu]ATCY[Abu]RFFNAF[Abu]YCRKL (disulfide (positions not given here)) [peptide of SEQ ID NO:5] | – | – | – | – | > 1000 nM | 377 nM | > 1000 nM | > 1000 nM |
| Ac-[Nle]H[dF]RWK [NDP-alpha-MSH] | – | – | – | – | 0.9 nM and 0.7 nM | – | 8 nM | – |
| CRFFGSAC (disulfide 1-8 (inferred)) [peptide of SEQ ID NO:7] | – | – | – | – | > 1000 nM | – | > 1000 nM | > 1000 nM |
| RNS[Abu]KPPAPAC[Abu]DP[Abu]AS[Abu]QCRFFRSACSCRVL (disulfide (positions not given here)) [peptide of SEQ ID NO:15] | – | – | – | – | > 1000 nM | 45 nM | 800 nM | > 1000 nM |
| MRCVRLHESCLGQQVPCCDPCATCYCRFFNAFCYCRKLGTAMNPCSRT [Md65-AGRP] | – | – | – | – | 2 nM | – | – | – |
| B7 | – | – | – | – | 20 nM and 10 nM | – | – | 0.7 nM |
| HESCLGQQVPC[Abu]DP[Abu]ATCYCRFFNAFCYCRKL (disulfide (positions not given here)) [peptide of SEQ ID NO:2] | – | – | – | – | > 1000 nM | 50 nM | 200 nM | 850 nM |
